Experimental findings from paper PMC4613710, “A biophysical study on molecular physiology of the uncoupling proteins of the central nervous system” (Bioscience Reports, 2015) are described below.

As a reminder, the stoichiometry N is the number of molecules, sites or subunits per partner or assembly.

Data set [1] deals with the molecule itself. Kind of data set: native gel or EMSA; semi-native PAGE (12% gel, 2 mM SDS in running buffer only), UCP reconstituted in POPC liposomes, loading buffer lacking SDS, Coomassie stain; bands identified by LC-MS/MS.
Data set [2] deals with the molecule itself. Kind of data set: other fluorescence titration; Trp fluorescence (excitation 295 nm, 25 C) of UCP in POPC liposomes titrated with SDS (0-83.9 mM); maximum intensity against [SDS], Hill fit; Ka1/2 low SDS range (0-10 mM): tetramer to tight dimers; Kb1/2 high SDS range (10-100 mM): tight dimers to loose dimers and monomers.
Data set [3] concerns the molecule itself. As to the kind of experiment: far-UV CD spectroscopy, SDS titration; UCP reconstituted in POPC liposomes titrated with SDS (0-83 mM); normalised theta208/theta222 against [SDS], Hill fit; K1/2 = [SDS] at 50% protein dissociation; tetramer to dimers.
Data set [4] concerns the molecule itself. Kind of data set: native gel or EMSA; semi-native PAGE (12% gel), UCP reconstituted in POPC liposomes titrated with SDS to 83 mM (about 40x CMC), Coomassie stain; bands identified by LC-MS/MS. A general note: A gel shift assay detects complexes by their altered migration in electrophoresis.

B1: human uncoupling protein 5 (His6-ENLYFQG-hUCP5) (natural protein, UniProt O95258 1-325, looked up)
chain: MGIFPGIILIFLRVKFATAAVIVSGHQKSTTVSHEMSGLNWKPFVYGGLASIVAEFGTFPVDLTKTRLQVQGQSIDARFKEIKYRGMFHALFRICKEEGVLALYSGIAPALLRQASYGTIKIGIYQSLKRLFVERLEDETLLINMICGVVSGVISSTIANPTDVLKIRMQAQGSLFQGSMIGSFIDIYQQEGTRGLWRGVVPTAQRAAIVVGVELPVYDITKKHLILSGMMGDTILTHFVSSFTCGLAGALASNPVDVVRTRMMNQRAIVGHVDLYKGTVDGILKMWKHEGFFALYKGFWPNWLRLGPWNIIFFITYEQLKRLQI
notes: uncoupling protein 5 (UCP5), human; cDNA bought from A.T.C.C., sub-cloned into pET26b(+); Tetramer is the predominant form in POPC liposomes without SDS; dimers and a few monomers at 83 mM SDS; also called neuronal UCP
On to B1, for which the figures for the “stoichiometry N” value in data set [1] and in data set [4] were 4 and 2, respectively. The “Fl Ka1/2 (first transition, tetramer to dimers, [SDS])” value in data set [2] turned out to be 0.6 ± 0.1 mM SDS. Besides, the “Fl Kb1/2 (second transition, dimers to loose dimers and monomers, [SDS])” value in data set [2] came out at 8.9 ± 0.2 mM SDS. In addition, in data set [3], the “CD K1/2 ([SDS] at 50% protein dissociation)” value stood at 1 ± 0.1 mM SDS.

B2: human uncoupling protein 4 (His6-ENLYFQG-hUCP4) (natural protein, UniProt O95847 1-323, looked up)
chain: MSVPEEEERLLPLTQRWPRASKFLLSGCAATVAELATFPLDLTKTRLQMQGEAALARLGDGARESAPYRGMVRTALGIIEEEGFLKLWQGVTPAIYRHVVYSGGRMVTYEHLREVVFGKSEDEHYPLWKSVIGGMMAGVIGQFLANPTDLVKVQMQMEGKRKLEGKPLRFRGVHHAFAKILAEGGIRGLWAGWVPNIQRAALVNMGDLTTYDTVKHYLVLNTPLEDNIMTHGLSSLCSGLVASILGTPADVIKSRIMNQPRDKQGRGLLYKSSTDCLIQAVQGEGFMSLYKGFLPSWLRMTPWSMVFWLTYEKIREMSGVSPF
notes: uncoupling protein 4 (UCP4), human; cDNA synthesized by GenScript, sub-cloned into pET26b(+); Tetramer is the predominant form in POPC liposomes without SDS; dimers and a few monomers at 83 mM SDS; also called neuronal UCP
With B2, the “stoichiometry N” value in data set [1] worked out at 4. Also, in data set [2], the “Fl Ka1/2 (first transition, tetramer to dimers, [SDS])” value came out at 0.6 ± 0.1 mM SDS; the “Fl Kb1/2 (second transition, dimers to loose dimers and monomers, [SDS])” value came to 9.8 ± 0.3 mM SDS. Further, in data set [3], the “CD K1/2 ([SDS] at 50% protein dissociation)” value is 1 ± 0.1 mM SDS. Also, the “stoichiometry N” value in data set [4] was found to be 2.

B3: human uncoupling protein 2 (His6-ENLYFQG-hUCP2) (natural protein, UniProt P55851 1-309, looked up)
chain: MVGFKATDVPPTATVKFLGAGTAACIADLITFPLDTAKVRLQIQGESQGPVRATASAQYRGVMGTILTMVRTEGPRSLYNGLVAGLQRQMSFASVRIGLYDSVKQFYTKGSEHASIGSRLLAGSTTGALAVAVAQPTDVVKVRFQAQARAGGGRRYQSTVNAYKTIAREEGFRGLWKGTSPNVARNAIVNCAELVTYDLIKDALLKANLMTDDLPCHFTSAFGAGFCTTVIASPVDVVKTRYMNSALGQYSSAGHCALTMLQKEGPRAFYKGFMPSFLRLGSWNVVMFVTYEQLKRALMAACTSREAPF
notes: uncoupling protein 2 (UCP2), human; cDNA clone pET21a-UCP2 sub-cloned into pET26b(+); Tetramer is the predominant form in POPC liposomes without SDS; dimers and a few monomers at 83 mM SDS; PDB 2LCK is only viewed as a model of UCP2; also called neuronal UCP
For B3, the “stoichiometry N” value in data set [1] was 4. Besides, in data set [2], the “Fl Ka1/2 (first transition, tetramer to dimers, [SDS])” value worked out at 0.61 ± 0.1 mM SDS; the “Fl Kb1/2 (second transition, dimers to loose dimers and monomers, [SDS])” value was 7.1 ± 0.3 mM SDS. In data set [3], the “CD K1/2 ([SDS] at 50% protein dissociation)” value was determined as 1.1 ± 0.1 mM SDS. In addition, in data set [4], the “stoichiometry N” value amounted to 2.
